Numbering of substitutions follows the chain as printed.
T1: mouse Claudin-6 (CLDN6) (mouse, UniProt Q9Z262 1-219)
T1 construct: whole, on cells; GFP fusion on engineered HEK293T cells; also called Mouse CLDN6; murine CLDN6
T1 sequence (looked up): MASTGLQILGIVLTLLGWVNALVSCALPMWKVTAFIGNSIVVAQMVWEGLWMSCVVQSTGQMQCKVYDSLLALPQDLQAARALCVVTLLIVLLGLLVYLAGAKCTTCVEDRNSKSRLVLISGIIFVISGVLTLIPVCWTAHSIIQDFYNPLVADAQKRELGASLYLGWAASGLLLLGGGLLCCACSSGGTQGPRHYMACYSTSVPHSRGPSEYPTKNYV

B1: AB1-11 (antibody, V domains shown)
VH: QVQLVQSGAEVKKPGASVKMSCKASGYTFTTYTMHWVRQAPGQGLEWIGFINPSSGYTDYAQKFQGRVTLTADKSTSTVYMELSSLRSEDTAVYYCANGDYYVAYWGQGTLVTVSS
VL: DIQLTQSPSSLSASVGDRVTMTCTASSSVSSTYFHWYQQKPGKAPKLWIYSTSNLASGVPSRFSGSGSGTDYTLTISSMQPEDAATYYCHQYHRSPLTFGQGTKLEIK
notes: humanized; also called humanized AB1-11; HU-11
B2: AB S9 (antibody, V domains shown)
VH: B1 VH with M34I, F50V, Y95F, A104G
VL: B1 VL
B3: AB S11 (antibody, V domains shown)
VH: B1 VH with M34I, F50V, D59E, Y95F
VL: B1 VL
B4: AB S12 (antibody, V domains shown)
VH: B1 VH with D59E, Y95F, A104G
VL: B1 VL
B5: AB S10 (antibody, V domains shown)
VH: B1 VH with D59E, A104G
VL: B1 VL
B6: AB S1 (antibody, V domains shown)
VH: EVQLLESGGGLVQPGGSMRLSCAASGFTFSNYWMNWVRQAPGKGLEWIAQIRLKSDNYATHYTDSVKGRFTISRDDSKRTVYLQMNSLRAEDTGTYYCSDGPPSGSWGQGTLLTVSS
VL: DIQMTQSPSSLSASVGDRVTITCRISENIYSYLAWYQQKPGKAPKLLVYNAKILVEGVPSRFSGSGSGTDFTLTISSLQPEDFGTYYCQHHYTVPWTFGQGTKLEIK
B7: AB S3 (antibody, V domains shown)
VH: B6 VH with A59V, T95I
VL: B6 VL
B8: AB S2 (antibody, V domains shown)
VH: B6 VH with T63A
VL: B6 VL
B9: AB4-6 (antibody, V domains shown)
VH: QVQLVQSGAEVKKPGASVKMSCKASGYTFTSYTMHWIRQAPGQGLEWIGYINPSSTYTHYAQKFQGRATLTADKSTSTAYMELSSLRSEDTAVYYCSRGELGGFAYWGQGTLVTVSS
VL: DVVMTQSPLSLPVTLGQPASISCRSSQSLVHSDGNTYLNWYQQRPGQSPRLLIYKVSNRFSGVPDRFSGSGSGTDFTLKISRVEAEDVGVYYCSQSTHVPYTFGQGTKLEIK
notes: humanized
B10: AB4-9 (antibody, V domains shown)
VH: B9 VH with A61I, Q62K, Q65K, G66D, K74T
VL: B9 VL
notes: humanized
B11: AB4-7 (antibody, V domains shown)
VH: B9 VH with L45Q
VL: B9 VL
notes: humanized
B12: AB4-12 (antibody, V domains shown)
VH: B9 VH with L45Q, A61I, Q62K, Q65K, G66D
VL: B9 VL
notes: humanized
B13: AB4-8 (antibody, V domains shown)
VH: QVQLVQSGAEVKKPGASVKVSCKASGYTFTSYTMHWVRQAPGQGLEWMGYINPSSTYTHYIKKFKDRVTMTADTSTSTVYMELSSLRSEDTAVYYCSRGELGGFAYWGQGTLVTVSS
VL: B9 VL
notes: humanized
B14: AB4-11 (antibody, V domains shown)
VH: B9 VH with A61I, Q62K, Q65K, G66D
VL: B9 VL
notes: humanized
B15: AB4-10 (antibody, V domains shown)
VH: B9 VH with L45Q, A61I, Q62K, Q65K, G66D, K74T
VL: B9 VL
notes: humanized

What follows are binders tested against human Claudin-6 (CLDN6) (human) (UniProt P56747) (assay: FACS, limiting dilution, ARK2 cells).

FACS signal at 0.32 nM | FACS signal at 1.6 nM | FACS signal at 8 nM | FACS signal at 40 nM | FACS signal at 200 nM | FACS signal at 1000 nM | Binder
377 | 639 | 2290 | 3460 | 16400 | 50500 | B1
2990 | 16400 | 54600 |  |  |  | B2
2130 | 6100 | 20200 | 59400 |  |  | B3
1310 | 2080 | 8850 | 22900 | 62300 |  | B4
2080 | 7690 | 27500 | 68200 |  |  | B5
466 | 1380 | 3850 | 25800 | 62500 |  | B6
372 | 933 | 4830 | 24600 | 83600 |  | B7
608 | 956 | 4840 | 21000 | 83400 |  | B8

These binders were tested against human Claudin-6 (CLDN6) (human) (UniProt P56747) (assay: FACS, limiting dilution, OV90 cells).

FACS signal at 0.32 nM | FACS signal at 1.6 nM | FACS signal at 8 nM | FACS signal at 40 nM | FACS signal at 200 nM | FACS signal at 1000 nM | Binder
452 | 753 | 2150 | 7820 | 32500 | 72100 | B1
2940 | 14000 | 48500 |  |  |  | B2
1460 | 4950 | 14700 | 44900 | 85600 |  | B3
638 | 1260 | 4630 | 14600 | 38300 | 83400 | B4
862 | 4690 | 16300 | 50400 | 87900 |  | B5
475 | 668 | 2390 | 10500 | 43500 |  | B6
482 | 1040 | 4470 | 19500 | 63100 |  | B7
537 | 1510 | 3950 | 18100 | 53400 |  | B8

Each binder was assayed against human Claudin-6 (CLDN6) (human) (UniProt P56747) (assay: FACS, limiting dilution, UMUC4 cells).

FACS signal at 0.32 nM | FACS signal at 1.6 nM | FACS signal at 8 nM | FACS signal at 40 nM | FACS signal at 200 nM | FACS signal at 1000 nM | Binder
618 | 839 | 1610 | 4160 | 25700 |  | B1
1910 | 11600 | 19200 | 23900 | 35600 |  | B2
2350 | 2770 | 7000 | 12800 | 19900 | 33400 | B3
947 | 1910 | 5040 | 14800 | 37500 |  | B4
874 | 2540 | 6850 | 9940 | 22200 | 35100 | B5
639 | 767 | 2330 | 6680 | 18700 | 41500 | B6
533 | 647 | 1980 | 7780 | 20800 | 45300 | B7
505 | 746 | 2270 | 6970 | 20000 |  | B8

These binders were tested against human Claudin-6 (CLDN6) (human) (UniProt P56747) (assay: FACS, 0.3 ug Ab, ARK2 cells (2nd Ab only 1351.21)).

FACS fluorescence | Binder
53900 | B1
3300 | B9
3060 | B10
2770 | B11
9690 | B12
3120 | B13
6390 | B14
7210 | B15

These binders were tested against human Claudin-6 (CLDN6) (human) (UniProt P56747) (assay: FACS, 1.5 ug Ab, ARK2 cells (2nd Ab only 1351.21)).

FACS fluorescence | Binder
97700 | B1
9840 | B9
7790 | B10
7560 | B11
24200 | B12
7310 | B13
9170 | B14
20200 | B15

What follows are binders tested against human Claudin-6 (CLDN6) (human) (UniProt P56747) (assay: FACS, 0.3 ug Ab, 293T clone expressing human CLDN6 (2nd Ab only 768.07)).

FACS fluorescence | Binder
64900 | B1
10800 | B9
37200 | B10
19200 | B11
71100 | B12
49300 | B13
37800 | B14
50800 | B15

Each binder was assayed against human Claudin-6 (CLDN6) (human) (UniProt P56747) (assay: FACS, 1.5 ug Ab, 293T clone expressing human CLDN6 (2nd Ab only 768.07)).

FACS fluorescence | Binder
113000 | B1
29200 | B9
56900 | B10
33300 | B11
86200 | B12
77600 | B13
61200 | B14
77200 | B15

These binders were tested against T1, mouse Claudin-6 (CLDN6) (assay: FACS, 293T clone expressing mouse CLDN6, dose not stated (2nd Ab only 1061.72)).
Method: Two doses (1.5 μg or 0.3 μg) of the humanized antibodies were tested for binding to either human CLDN6 or murine CLDN6 which proteins were expressed by engineered 293T clones.

FACS fluorescence | Binder
101000 | B1
14200 | B9
1780 | B10
6640 | B11
1130 | B12
4700 | B13
1230 | B14
2650 | B15
